Measured values as given in the supplement of paper PMC5998384.

Columns and labels:
HeLa Kyoto [1] = experiment: thermal stability score vs G1/S (z-score of summed log2 fold changes over temperatures); higher = more thermally stable than in G1/S
HeLa Kyoto [2] = experiment: melting temperature (median over replicates), in situ; higher = more thermally stable
HeLa Kyoto [3] = experiment: solubility in G1/S (NP-40 vs SDS abundance) (log2 ratio); higher = more soluble; settings: cell cycle stage: G1/S
HeLa Kyoto [4] = experiment: solubility change mitosis vs G1/S (difference of NP-40 vs SDS log2 ratios) (log2 ratio difference); higher = more soluble in mitosis
[5] = cell cycle stage: early G1 (4.5 h after nocodazole release)
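For melting temperature (median over replicates), in situ in this document: HeLa Kyoto cells synchronized by double thymidine or nocodazole block, proteins quantified by TMT10plex mass spectrometry, three independent biological replicates.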
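For solubility change mitosis vs G1/S (difference of NP-40 vs SDS log2 ratios) in this document: synchronized HeLa Kyoto cells (double thymidine block for G1/S, nocodazole release for mitosis), protein amounts in NP-40 versus SDS lysates quantified by mass spectrometry, three biological replicates.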
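For solubility in G1/S (NP-40 vs SDS abundance) in this document: HeLa Kyoto cells arrested at G1/S by double thymidine block, proteins quantified by TMT10plex mass spectrometry in mild NP-40 versus SDS extracts, three biological replicates.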
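For thermal stability score vs G1/S (z-score of summed log2 fold changes over temperatures) in this document: synchronized HeLa Kyoto cells, proteins quantified by TMT10plex mass spectrometry, three biological replicates, mitosis taken 0.5 h after nocodazole release, G1/S directly after double thymidine block.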

| Substance | thermal stability score (HeLa Kyoto [1]; [5]) | thermal stability score (HeLa Kyoto [1]; cell cycle stage: mitosis) | melting temperature (HeLa Kyoto [2]; cell cycle stage: G1/S) [°C] | melting temperature (HeLa Kyoto [2]; cell cycle stage: mitosis) [°C] | solubility in G1/S (log2) (HeLa Kyoto [3]) | solubility change mitosis (log2) (HeLa Kyoto [4]) |
| --- | --- | --- | --- | --- | --- | --- |
| MFEIKKICCIGAGYVGGPTCSVIAHMCPEIRVTVVDVNESRINAWNSPTLPIYEPGLKEVVESCRGKNLFFSTNIDDAIKEADLVFISVNTPTKTYGMGKGRAADLKYIEACARRIVQNSNGYKIVTEKSTVPVRAAESIRRIFDANTKPNLNLQVLSNPEFLAEGTAIKDLKNPDRVLIGGDETPEGQRAVQALCAVYEHWVPREKILTTNTWSSELSKLAANAFLAQRISSINSISALCEATGADVEEVATAIGMDQRIGNKFLKASVGFGGSCFQKDVLNLVYLCEALNLPEVARYWQQVIDMNDYQRRRFASRIIDSLFNTVTDKKIAILGFAFKKDTGDTRESSSIYISKYLMDEGAHLHIYDPKVPREQIVVDLSHPGVSEDDQVSRLVTISKDPYEACDGAHAVVICTEWDMFKELDYERIHKKMLKPAFIFDGRRVLDGLHNELQTIGFQIETIGKKVSSKRIPYAPSGEIPKFSLQDPPNKKPKV [UGDH] | 0.636 | 0.376 | 54 | 54.2 | 0.126 | -0.0998 |
| MAKAKKVGARRKASGAPAGARGGPAKANSNPFEVKVNRQKFQILGRKTRHDVGLPGVSRARALRKRTQTLLKEYKERDKSNVFRDKRFGEYNSNMSPEEKMMKRFALEQQRHHEKKSIYNLNEDEELTHYGQSLADIEKHNDIVDSDSDAEDRGTLSAELTAAHFGGGGGLLHKKTQQEGEEREKPKSRKELIEELIAKSKQEKRERQAQREDALELTEKLDQDWKEIQTLLSHKTPKSENRDKKEKPKPDAYDMMVRELGFEMKAQPSNRMKTEAELAKEEQEHLRKLEAERLRRMLGKDEDENVKKPKHMSADDLNDGFVLDKDDRRLLSYKDGKMNVEEDVQEEQSKEASDPESNEEEGDSSGGEDTEESDSPDSHLDLESNVESEEENEKPAKEQRQTPGKGLISGKERAGKATRDELPYTFAAPESYEELRSLLLGRSMEEQLLVVERIQKCNHPSLAEGNKAKLEKLFGFLLEYVGDLATDDPPDLTVIDKLVVHLYHLCQMFPESASDAIKFVLRDAMHEMEEMIETKGRAALPGLDVLIYLKITGLLFPTSDFWHPVVTPALVCLSQLLTKCPILSLQDVVKGLFVCCLFLEYVALSQRFIPELINFLLGILYIATPNKASQGSTLVHPFRALGKNSELLVVSAREDVATWQQSSLSLRWASRLRAPTSTEANHIRLSCLAVGLALLKRCVLMYGSLPSFHAIMGPLQALLTDHLADCSHPQELQELCQSTLTEMESQKQLCRPLTCEKSKPVPLKLFTPRLVKVLEFGRKQGSSKEEQERKRLIHKHKREFKGAVREIRKDNQFLARMQLSEIMERDAERKRKVKQLFNSLATQEGEWKALKRKKFKK [NOP14] | 0.586 | 1.66 | 49.2 | 50.4 | -1.66 | 0.737 |
| MWGACKVKVHDSLATISITLRRYLRLGATMAKSKFEYVRDFEADDTCLAHCWVVVRLDGRNFHRFAEKHNFAKPNDSRALQLMTKCAQTVMEELEDIVIAYGQSDEYSFVFKRKTNWFKRRASKFMTHVASQFASSYVFYWRDYFEDQPLLYPPGFDGRVVVYPSNQTLKDYLSWRQADCHINNLYNTVFWALIQQSGLTPVQAQGRLQGTLAADKNEILFSEFNINYNNELPMYRKGTVLIWQKVDEVMTKEIKLPTEMEGKKMAVTRTRTKPVPLHCDIIGDAFWKEHPEILDEDS [THG1L] | 0.242 | -0.354 | 53.3 | 53.5 | -0.0679 | -0.0698 |
| MASVTRAVFGELPSGGGTVEKFQLQSDLLRVDIISWGCTITALEVKDRQGRASDVVLGFAELEGYLQKQPYFGAVIGRVANRIAKGTFKVDGKEYHLAINKEPNSLHGGVRGFDKVLWTPRVLSNGVQFSRISPDGEEGYPGELKVWVTYTLDGGELIVNYRAQASQATPVNLTNHSYFNLAGQASPNINDHEVTIEADTYLPVDETLIPTGEVAPVQGTAFDLRKPVELGKHLQDFHLNGFDHNFCLKGSKEKHFCARVHHAASGRVLEVYTTQPGVQFYTGNFLDGTLKGKNGAVYPKHSGFCLETQNWPDAVNQPRFPPVLLRPGEEYDHTTWFKFSVA [GALM] | -0.647 | -0.863 | – | 51.4 | 0.236 | -0.0325 |
| MWLDRRGWLRVLGHWRYDLRRPSFTRTWSGDKGPMAETVSTQVGTEGGLRASHQQNGDAGGDAKVELSPGPPKPAGREVEPAPVGGEHPSAAAPGPGKHKKRRGATRERVVPPPKKRRTGVSFGDEHFAETSYYFEGGLRKVRPYYFDFRTYCKGRWVGHSLLHVFSTEFRAQPLAYYEAAVRAGRLQLNEKPVQDLNIVLKDNDFLRNTVHRHEPPVTAEPIRLLAENEDVVVVDKPSSIPVHPCGRFRHNTVIFILGKEHQLKELHPLHRLDRLTSGVLMFAKTAAVSERIHEQVRDRQLEKEYVCRVEGEFPTEEVTCKEPILVVSYKVGVCRVDPRGKPCETVFQRLSYNGQSSVVRCRPLTGRTHQIRVHLQFLGHPILNDPIYNSVAWGPSRGRGGYIPKTNEELLRDLVAEHQAKQSLDVLDLCEGDLSPGLTDSTAPSSELGKDDLEELAAAAQKMEEVAEAAPQELDTIALASEKAVETDVMNQETDPLCAECRLVRQDPLPQDLVMFLHALRYKGPGFEYFSPMPAWAQDDWQKD [RPUSD2] | -1.46 | -2.6 | 54.1 | 54.1 | -0.0296 | 0.0172 |
| HINT3 | -1.15 | -1.14 | 55.1 | 54.7 | 0.186 | -0.161 |
| MFWKFDLHTSSHLDTLLEREDLSLPELLDEEDVLQECKVVNRKLLDFLLQPPHLQAMVAWVTQEPPDSGEERLRYKYPSVACEILTSDVPQINDALGADESLLNRLYGFLQSTGSLNPLLASFFSKVMGILINRKTDQLVSFLRKKDDFVDLLLQHIGTSAIMDLLLRLLTCVERPQLRQDVVNWLNEEKIVQRLIEQIHPSKDENQHSNASQSLCDIIRLSREQMIQVQDSPEPDQLLATLEKQETIEQLLSNMFEGEQSQSVIVSGIQVLLTLLEPRRPRSESVTVNSFFSSVDGQLELLAQGALESTVSSVGALHALRPRLSCFHQLLLEPPKLEPLQMTWGMLAPPLGNTRLHVVKLLASALSANDAALTHELLALDVPNTMLDLFFHYVFNNFLHAQVEGCVSTMLSLGPPPDSSPETPIQNPVVKHLLQQCRLVERILTSWEENDRVQCAGGPRKGYMGHLTRVAGALVQNTEKGPNAEQLRQLLKELPSEQQEQWEAFVSGPLAETNKKNMVDLVNTHHLHSSSDDEDDRLKEFNFPEEAVLQQAFMDFQMQRMTSAFIDHFGFNDEEFGEQEESVNAPFDKTANITFSLNADDENPNANLLEICYKDRIQQFDDDEEEEDEEEAQGSGESDGEDGAWQGSQLARGARLGQPPGVRSGGSTDSEDEEEEDEEEEEDEEGIGCAARGGATPLSYPSPGPQPPGPSWTATFDPVPTDAPTSPRVSGEEELHTGPPAPQGPLSVPQGLPTQSLASPPARDALQLRSQDPTPPSAPQEATEGSKVTEPSAPCQALVSIGDLQATFHGIRSAPSSSDSATRDPSTSVPASGAHQPPQTTEGEKSPEPLGLPQSQSAQALTPPPIPNGSAPEGPASPGSQ [PPP6R1] | -1.2 | -0.743 | 53.1 | 50.6 | 0.169 | -0.0433 |
| MAFVPVIPESYSHVLAEFESLDPLLSALRLDSSRLKCTSIAVSRKWLALGSSGGGLHLIQKEGWKHRLFLSHREGAISQVACCLHDDDYVAVATSQGLVVVWELNQERRGKPEQMYVSSEHKGRRVTALCWDTAILRVFVGDHAGKVSAIKLNTSKQAKAAAAFVMFPVQTITTVDSCVVQLDYLDGRLLISSLTRSFLCDTEREKFWKIGNKERDGEYGACFFPGRCSGGQQPLIYCARPGSRMWEVNFDGEVISTHQFKKLLSLPPLPVITLRSEPQYDHTAGSSQSLSFPKLLHLSEHCVLTWTERGIYIFIPQNVQVLLWSEVKDIQDVAVCRNELFCLHLNGKVSHLSLISVERCVERLLRRGLWNLAARTCCLFQNSVIASRARKTLTADKLEHLKSQLDHGTYNDLISQLEELILKFEPLDSACSSRRSSISSHESFSILDSGIYRIISSRRGSQSDEDSCSLHSQTLSEDERFKEFTSQQEEDLPDQCCGSHGNEDNVSHAPVMFETDKNETFLPFGIPLPFRSPSPLVSLQAVKESVSSFVRKTTEKIGTLHTSPDLKVRPELRGDEQSCEEDVSSDTCPKEEDTEEEKEVTSPPPEEDRFQELKVATAEAMTKLQDPLVLFESESLRMVLQEWLSHLEKTFAMKDFSGVSDTDNSSMKLNQDVLLVNESKKGILDEDNEKEKRDSLGNEESVDKTACECVRSPRESLDDLFQICSPCAIASGLRNDLAELTTLCLELNVLNSKIKSTSGHVDHTLQQYSPEILACQFLKKYFFLLNLKRAKESIKLSYSNSPSVWDTFIEGLKEMASSNPVYMEMEKGDLPTRLKLLDDEVPFDSPLLVVYATRLYEKFGESALRSLIKFFPSILPSDIIQLCHHHPAEFLAYLDSLVKSRPEDQRSSFLESLLQPESLRLDWLLLAVSLDAPPSTSTMDDEGYPRPHSHLLSWGYSQLILHLIKLPADFITKEKMTDICRSCGFWPGYLILCLELERRREAFTNIVYLNDMSLMEGDNGWIPETVEEWKLLLHLIQSKSTRPAPQESLNGSLSDGPSPINVENVALLLAKAMGPDRAWSLLQECGLALELSEKFTRTCDILRIAEKRQRALIQSMLEKCDRFLWSQQA [HPS5] | 1.53 | 1.55 | 48.6 | 49.5 | -0.142 | -0.108 |
| MDDREDLVYQAKLAEQAERYDEMVESMKKVAGMDVELTVEERNLLSVAYKNVIGARRASWRIISSIEQKEENKGGEDKLKMIREYRQMVETELKLICCDILDVLDKHLIPAANTGESKVFYYKMKGDYHRYLAEFATGNDRKEAAENSLVAYKAASDIAMTELPPTHPIRLGLALNFSVFYYEILNSPDRACRLAKAAFDDAIAELDTLSEESYKDSTLIMQLLRDNLTLWTSDMQGDGEEQNKEALQDVEDENQ [YWHAE] | -1.18 | -2.71 | 55.3 | 55.8 | 0.336 | 0.181 |
| MAAGVDCGDGVGARQHVFLVSEYLKDASKKMKNGLMFVKLVNPCSGEGAIYLFNMCLQQLFEVKVFKEKHHSWFINQSVQSGGLLHFATPVDPLFLLLHYLIKADKEGKFQPLDQVVVDNVFPNCILLLKLPGLEKLLHHVTEEKGNPEIDNKKYYKYSKEKTLKWLEKKVNQTVAALKTNNVNVSSRVQSTAFFSGDQASTDKEEDYIRYAHGLISDYIPKELSDDLSKYLKLPEPSASLPNPPSKKIKLSDEPVEAKEDYTKFNTKDLKTEKKNSKMTAAQKALAKVDKSGMKSIDTFFGVKNKKKIGKV [RNASEH2B] | -0.0838 | 0.982 | 48.8 | 49.7 | 0.517 | -0.0965 |
| MALSRGLPRELAEAVAGGRVLVVGAGGIGCELLKNLVLTGFSHIDLIDLDTIDVSNLNRQFLFQKKHVGRSKAQVAKESVLQFYPKANIVAYHDSIMNPDYNVEFFRQFILVMNALDNRAARNHVNRMCLAADVPLIESGTAGYLGQVTTIKKGVTECYECHPKPTQRTFPGCTIRNTPSEPIHCIVWAKYLFNQLFGEEDADQEVSPDRADPEAAWEPTEAEARARASNEDGDIKRISTKEWAKSTGYDPVKLFTKLFKDDIRYLLTMDKLWRKRKPPVPLDWAEVQSQGEETNASDQQNEPQLGLKDQQVLDVKSYARLFSKSIETLRVHLAEKGDGAELIWDKDDPSAMDFVTSAANLRMHIFSMNMKSRFDIKSMAGNIIPAIATTNAVIAGLIVLEGLKILSGKIDQCRTIFLNKQPNPRKKLLVPCALDPPNPNCYVCASKPEVTVRLNVHKVTVLTLQDKIVKEKFAMVAPDVQIEDGKGTILISSEEGETEANNHKKLSEFGIRNGSRLQADDFLQDYTLLINILHSEDLGKDVEFEVVGDAPEKVGPKQAEDAAKSITNGSDDGAQPSTSTAQEQDDVLIVDSDEEDSSNNADVSEEERSRKRKLDEKENLSAKRSRIEQKEELDDVIALD [UBA2] | -0.2 | 0.883 | 52.2 | 52 | 0.146 | -0.204 |
